{"source": "the DeepSol protein solubility set", "data": [{"assay": "soluble on expression in E. coli; label from the status in PepcDB or PDB records", "values": [{"sequence": "MERIERISEEIKREISDIIQNELKDPRLSKLISITEVNVTKDLRYAKVYVSVMGSEEEKANSLEGLKSAAGFIRREIGRRVQLRYTPEIHFELDNSIERGAYITKLINETSAQNKGSKDPEDT", "soluble on expression in E. coli": "soluble"}, {"sequence": "MERKWIKKKAHIVPTHAMYGLAQVLKDIGIDVISLVNYALNLHDYHYNGFEPGFSRYSKKEEVFRDLITLVKETRKVIDIYYSKYEVKEILGKINELIKELTEGNKLEHHHHHH", "soluble on expression in E. coli": "not soluble"}, {"sequence": "MERLDFSSIIRKDREEHKSKKFEGTFLEYLEIVKENPEITMLAHQRMYKLITEPGVTVIRTEENPRLRRIYGNDIIKKYKFFEDEFFGIDKTIMKIVRYFHSAAMAGEEARQVLYLVGPVGAGKSSLMEALKRALEMSPPIYALKGCPMREEPLHLVPKHLRKEFEEILNVRIEGDLCPICRYRLKNEYNGEYERFPVETVDFSIRSRKGIGVVPPVDPNNQDTSVLIGSVDISKIDLYPEDDPRVLSLNGAFNVGNRGIVEFIEVFKNETEYLHTMITATQEKSIPSPGKGSMIYFDGIILAHSNEAEWNKFKSDHTNEAILDRIVKIEVPYCLELNEEIKIYEKILRKSKFDAHIAPHTIEIAAMFAILTRLAPSNKVDPMTKLKIYNGEEIIEKGMTKKVDIFELKEEAPREGMTGISTRFIMKVLDTTLSESEHNCINPISVMETLVKSIKELSISEEERERYLRFVQDSIRKEYNKILEREITKAFIHGYKEQAESLFNNYLDHAEAFVNKSKIKDRNTGEELEPDEKFLRSIEEQIGITDTAAKGFRADVTAYMFYVLRNGGKLDYTSYEPLKEAIEKKLTSSVRELSRVITQAKVRDKEQSEKYDTMVQEMKNNGYCDHCCNVILKYAANNLWKD", "soluble on expression in E. coli": "soluble"}, {"sequence": "MERPQPDSMPQDLSEALKEATKEVHTQAENAEFMRNFQKGQVTRDGFKLVMASLYHIYVALEEEIERNKESPVFAPVYFPEELHRKAALEQDLAFWYGPRWQEVIPYTPAMQRYVKRLHEVGRTEPELLVAHAYTRYLGDLSGGQVLKKIAQKALDLPSSGEGLAFFTFPNIASATKFKQLYESRMNSLEMTPAVRQRVIEEAKTAFLLNIQLFEELQELLTHDTKDQSPSRA", "soluble on expression in E. coli": "soluble"}, {"sequence": "MESFIDRITEETDENFRICRENIPNFETTISPLLNTMKNIKLLLDDAAFDQQKLENNCEETCMNCTKSQLNDFLGIKVEASTIVDVKSQLVPQSKESSALVETNEPNEQGLSSKPKENDIRIVPQITDEEFKTIPKYQLGRLTLEMMNEIVSKMDDFLMKKSKILGKTNKQLTRSDREVLDNWRELEMKARKRLPTTLFFIETDIRPMLQDRLRPSFAKAIPCLRHIRRIREERCGPLTFYYP", "soluble on expression in E. coli": "not soluble"}, {"sequence": "MESGVPLVVVLRDVLEYVDDTSEAQYAINTDGVLVNGDSVGDVNRPIGMFDILAFPDRDEYYRVFPDEGGRLGLTEIDADAAGSKLNKVTDKTTVSGGRTQLNFHDGSNLALDEDAYAGGDSVVVDTDTNEIVAHFQYEEGALVTAVAGQHAGDIGEIAEINVQPGSASNTVRVDDENGGFETIAEYVVVIDENFLEHHHHHH", "soluble on expression in E. coli": "soluble"}, {"sequence": "MESIEQQLTELRTTLRHHEYLYHVMDAPEIPDAEYDRLMRELRELETKHPELITPDSPTQRVGAAPLAAFSQIRHEVPMLSLDNVFDEESFLAFNKRVQDRLKNNEKVTWCCELKLDGLAVSILYENGVLVSAATRGDGTTGEDITSNVRTIRAIPLKLHGENIPARLEVRGEVFLPQAGFEKINEDARRTGGKVFANPRNAAAGSLRQLDPRITAKRPLTFFCYGVGVLEGGELPDTHLGRLLQFKKWGLPVSDRVTLCESAEEVLAFYHKVEEDRPTLGFDIDGVVIKVNSLAQQEQLGFVARAPRWAVAFKFPAQEQMTFVRDVEFQVGRTGAITPVARLEPVHVAGVLVSNATLHNADEIERLGLRIGDKVVIRRAGDVIPQVVNVVLSERPEDTREVVFPTHCPVCGSDVERVEGEAVARCTGGLICGAQRKESLKHFVSRRAMDVDGMGDKIIDQLVEKEYVHTPADLFKLTAGKLTGLERMGPKSAQNVVNALEKAKETTFARFLYALGIREVGEATAAGLAAYFGTLEALEAASIEELQKVPDVGIVVASHVHNFFAEESNRNVISELLAEGVHWPAPIVINAEEIDSPFAGKTVVLTGSLSQMSRDDAKARLVELGAKVAGSVSKKTDLVIAGEAAGSKLAKAQELGIEVIDEAEMLRLLGS", "soluble on expression in E. coli": "soluble"}, {"sequence": "MESIKLSQKAEEEIVNAARMAALSNLTEKSQNLITLEDIAIYFGRHYQTVAKIISKLPNFPKPVTPVTVDQQNSRPRYIAGEVVRWGRINAKPY", "soluble on expression in E. coli": "not soluble"}, {"sequence": "MESKVVVPAQGKKITLQNGKLNVPENPIIPYIEGDGIGVDVTPAMLKVVDAAVEKAYKGERKISWMEIYTGEKSTQVYGQDVWLPAETLDLIREYRVAIKGPLTTPVGGGIRSLNVALRQELDLYICLRPVRYYQGTPSPVKHPELTDMVIFRENSEDIYAGIEWKADSADAEKVIKFLREEMGVKKIRFPEHCGIGIKPCSEEGTKRLVRAAIEYAIANDRDSVTLVHKGNIMKFTEGAFKDWGYQLAREEFGGELIDGGPWLKVKNPNTGKEIVIKDVIADAFLQQILLRPAEYDVIACMNLNGDYISDALAAQVGGIGIAPGANIGDECALFEATHGTAPAYAGQDKVNPGSIILSAEMMLRHMGWTEAADLIVKGMEGAINAKTVTYDFERLMDGAKLLKCSEFGDAIIENM", "soluble on expression in E. coli": "soluble"}, {"sequence": "MESLAAKVVERLNRAESAAELRFCHDELARELRRCLAPEQMKQLAGDVVCVHEAILRRAFFLAERETMKRSVGIRPPAWCWYVMGSIGRREPTIWTDQDHGILFDCPEEEEAACYEFIRHMAAVGVDMLHEAGYPYCSGYVMATNKRWAQSVRGWEQQLSSYLDSGWPNDIRFLLIAMDMRPLYGETELAEEGRRMLFSAVAKRPPLLAVRPAWVRRYRVKVPNGGWRAPTVS", "soluble on expression in E. coli": "not soluble"}, {"sequence": "MESLKSNLFLTREAYLEAFETIMTPLKTAILTSEKPGVNFGSSGAVYDQQHAEMEALIRPLWGIGPYWVTCKDDVLRDAYVEKLIAGTDPSSPDYWGVIVDYDQYIVEAAALSLTLLLHKTYFWSCFSEKQQENIMVWLNKALGCKIPKNNWTFFKVLIRLALEGCGQVINQAELEEELALIECMYLGDGWYMDGKTTQRDYYISFAFHYYSLIYVKFMRERDPIRAKRFTERAVMFAQDYLYYFDEEGEALPYGRSQTYRFAQGAFFAALIFAEVEALPWGQIKTLLAKHLHCWMQQAIFTYDGRLSIGYHYENLVMAEGYNAPGSPYWAFKTFLLLAVDQDHPFWRAEPLAIKREEKRLIEKGNMLLIHPKMKTHVLGYPAGLWLENQAHAAAKYSKFVYSSRFGFSVPKAGARYEEGAFDNVLAVSRDGEYFRVKGKVHDFYLTEEQVYYKWLPFQEVEIETTIYPFGEWHVRVHEIVTSVPLKVREGGFSLPLLGKFSEKELGKEWARVDSGELCSQIVAIEGYDHAGILQPEPNTSLFFPRTSLPYLQKELPIGTHRLICLVGGVTREE", "soluble on expression in E. coli": "soluble"}, {"sequence": "MESSGKSSANPNLLAETLTTMQAQLQTQTEISQQVMEDNKNQSALLKQQREMSQALLEENKRLRAAQGDQPRFVAVGEKPLNSVKLMSDLLRQLPKYHFDVSEPDSFTKWWARHKLTFTEDGAELSNRERNRMLVARLEESTFQRFVDSQRDVEDIYSVPVEDTIKALSKSFGSQRSLMIRRQSCLLISRASGASMDPLEYTNLVGEAVLDAKLSNMSTDDWSIFIFLRGMDAPEDALAKRYLMQYYEQFERKDEKLKLSDVHDEWIRYIQTQQQSKVITVTPARHPKFEVNQVDADDKKKDSRKGNYRPPYCYKCKVVGHVSKDCPQSSTNSGVTNRKTEHSEVNTLEVGSGRQTSPSLRLNVEGQQIDFTFDTGSDITLISVQNWQKIGKPHLEKVHHKICCANGTEIAVKGRVLVWFKVKGVEYTEYVYVWNRNNNLLGTSWMRHSPQMRDALAVMVNHISTVDNSKQNSHSFSRIPTGYKDRAENVGRHVVASAPRSSKRQYVRFARNKAFQIGQLCLARVQGEHDFGWIYGVVQRQVNGVLYEVQLGSRIQRIHTNQLRHICGRRSRGNDYASSFIENPCKLSLLENIPRSSCRQKFVAQGVRGEGREANPVLVSDSSVFGFSAPDLSACESVGSRSAREVVSSVAGNARNASGANITTIHVTESKSSLKKSHRRRRRVAKSRQSYTAGSSPIKETHLDPLLESDVASDGERFQPGILLRHSLRQSHPRQVVRGSAPNTDHVSTRRRGRDTASGRDAPSPGIISGFLSYKRGDVVDGT", "soluble on expression in E. coli": "soluble"}, {"sequence": "MESTGSVGEAPGGPRVLVVGGGIAGLGAAQRLCGHSAFPHLRVLEATARAGGRIRSERCFGGVVEVGAHWIHGPSRGNPVFQLAAEYGLLGEKELSQENQLVETGGHVGLPSVSYASSGASVSLQLVAEMATLFYGLIDQTREFLHAAETPVPSVGEYLKKEIGQHVAGWTEDEETRKLKLAVLNSFFNLECCVSGTHSMDLVALAPFGEYTVLPGLDCTFSKGYQGLTNCMMAALPEDTVVFEKPVKTIHWNGSFQEAAFPGETFPVSVECEDGDRFPAHHVIVTVPLGFLREHLDTFFDPPLPAEKAEAIRKIGFGTNNKIFLEFEEPFWEPDCQLIQLVWEDTSPLEDAAPELQDAWFRKLIGFVVLPAFASVHVLCGFIAGLESEFMETLSDEEVLLCLTQVLRRVTGNPRLPAPKSVLRSRWHSAPYTRGSYSYVAVGSTGGDLDLLAQPLPADGAGAQLQILFAGEATHRTFYSTTHGALLSGWREADRLLSLWAPQVQQPRPRL", "soluble on expression in E. coli": "not soluble"}, {"sequence": "METFHWKVRPDMNVVSEPKVVTVKLGDGYEQRRAAGLNNQLSTYSVTIRVRKGEHPSLKAFLERHGGVRAFQWTPPYDWKLIRVVCRKWSASVGALWVTVTADFEQVVN", "soluble on expression in E. coli": "not soluble"}, {"sequence": "METKAKNKTQLAYEYILSRIENGVYGPGYRVVIDQIARELGLSSIPVREAIRQLEAEGLVEFKPYTGAVVSNINEKEYIETLSVLAVLEGYATALGSANLTKEAINELERLNERMERALEELELERFSELNYEFHSLIYAHCGNAYLEEQIKQIWQRMKRIRVYGFTFVPQRAKASIEEHREIIRLLHEQAPPHEIEQYVRQHKINTAEAFKRRR", "soluble on expression in E. coli": "not soluble"}, {"sequence": "METKEAIIHVIVATAEWGKDQLRYRRHRLAEFLAAQEETKEVIWVCPAPRAQGKEFQEVHSGIRQFAVKDLLQKKMFRFGRYTDVFYRHKLSPLLDELTPASANGERCCLWYTFPGFPLLSSLYSWDQVIYDCSDLWAAPISGRSNLLSEFRRKVIKSAELRIIQRADSITCSSDYLHKEVDKKLTAGREKVHTVENGVEYELFSANKQAPDRSILQGREGIVLGFIGGIKPKLDFKMIKEAALQKPDWTFLWVGPDATNGDVSFQELLRLPNVIWTGPADPKEVPHYMELIDIGIMPYKQSPYNQAVFPLKLFEFLAAGKPVVGTNLPSTSKMQKPYVYEYVEGDHPIDFIAACEKVLGQNGDETYKEMRRNIARTQDWNCLFRQIMKYTGIQKHAMAGDPLEHHHHHH", "soluble on expression in E. coli": "not soluble"}, {"sequence": "METLHTQEDIIKMLDSLLRPAEPFWNEFYANREKDVPFFENVPDENLVSYIQKKRVSKGKVLELGCGPGRNAIYLANEGFDVTAVDVSIEGINWAKERALAKGVEIEFICDSIFNLEVQNEFDFVYDSGCLHHIPPHRRVNYVDLIKNALKSGGYFGLTCFAAGDLDERNGSEITDWDVYRGWSLQGGLAYSEEKLREIFKGFEVIEIRKMEQIEQPNTMFGESFLWTALFKKNLEHHHHHH", "soluble on expression in E. coli": "not soluble"}, {"sequence": "METPLEKALTTMVTTFHKYSGREGSKLTLSRKELKELIKKELCLGEMKESSIDDLMKSLDKNSDQEIDFKEYSVFLTMLCMAYNDFFLEDNK", "soluble on expression in E. coli": "soluble"}, {"sequence": "METQDHTLYVLLGPTGVGKTDLSLDIAERLGSPIISADSRQIFRELPIGTAAPTPEQRAKVPHLFVGTHSVRDYYSAGMYEVEVLEALKELFRKYRGVLLTGGSMMYIDAVCRGIDDIPDPFPEVREELYARYAAEGLDGILAQLRLLDPDYYAKVDRRNYKRVIHGLEICLSTGRPFSSFHRHEAKERPFRIVKIGLYREREELCKRIDARVLEMMEQGLEEEARAVYPLRHLNALNTVGYKEMFEYFDGSIDRAEAVRRIQRNSRVYARKQMTWFRRDSTIRWFHPEADKGTVLTLVT", "soluble on expression in E. coli": "not soluble"}]}]}
